According to patent US20240374603A1, “PHARMACEUTICAL PREPARATION, PREPARATION METHOD THEREFOR AND USE THEREOF” (COHERENT BIOPHARMA (SUZHOU) LIMITED, priority 2021, published 2024):
*1 amine or outer side, *2 acyl side, *3 side chain or, on linkers, in order; H or OH if unused. Where a SMILES comes first, the peptide text is derived from it. Bridges are numbered along the chain shown (N, C = ends). Roman numbers before positions name the chains, in order. [ ]: non-standard residue; d: D form. The star is where a group is joined. ξ: configuration not given here. Hexanoyl(6-succinimido-3yl) = O=C1CC([*:1])C(=O)N1CCCCCC(=O)[*:2]; Pteroyl = Nc1nc2ncc(CNc3ccc(C(=O)*)cc3)nc2c(=O)[nH]1; Dolaproine(all-ξ) = COC(C(C)C(=O)[*:2])C1CCCN1[*:1]; X1 = CCC(C)C(C(CC(=O)[*:2])OC)N(C)[*:1]; γGlu = O=C(O)[CH](CCC(=O)[*:2])N[*:1]; PABC = O=C(OCc1ccc(N[*:1])cc1)[*:2]; Cit = NC(=O)NCCC[CH](N)C(=O)O; NMeV = CN[CH](C(=O)O)C(C)C; X2 = CC(N*)C(O)c1ccccc1

What was measured:
[1] = pH confirmation in freeze-dried form, stability at 30° C. for 1 month; type: physicochemical; conditions: pH range of 6.9 to 7.7, 30° C. for 1 month
Procedure: An aqueous solution containing LDC10B (5 mg/mL), mannitol (40 mg/mL), sucrose (10 mg/mL) and tromethamine (0.765 mg/mL) was prepared, and the pH was adjusted to 6.9, 7.3 and 7.7 with dilute hydrochloric acid, respectively; the resulting solutions were filtered and sub-packaged into vials, half of a stopper was pressed into the vial, freeze-drying was performed, and the vials were capped. The stability of each sample was investigated at 30° C. for 1 month.

[2] = Final prescription and process confirmation, stability at 25° C. and 40° C.; type: physicochemical; conditions: final prescription (Example 7); for % Moisture / % Total impurity / Re-dissolution time s: freeze-dried; for pH value: re-dissolution pH
Procedure: In view of the results of the prescription screening experiment, the prescription process confirmation experiment was carried out to investigate the stability of the final prescription.

SMILES: CCC(C)C(C(CC(=O)N1CCCC1C(OC)C(C)C(=O)NC(C)C(O)c1ccccc1)OC)N(C)C(=O)C(NC(=O)C(C(C)C)N(C)C(=O)OCc1ccc(NC(=O)C(CCCNC(N)=O)NC(=O)C(NC(=O)CCCCCN2C(=O)CC(SCC(NC(=O)CCC(NC(=O)c3ccc(NCc4cnc5[nH]c(N)nc(=O)c5n4)cc3)C(=O)O)C(=O)NC(CCCCN)C(=O)NC(CCC(=O)O)C(=O)NC(Cc3ccccc3)C(=O)NC(CC(C)C)C(=O)NC(Cc3cnc[nH]3)C(=O)N3CCCC3C(=O)NC(CO)C(=O)NC(CCCCN)C(=O)NC(C(=O)NC(CC(=O)O)C(=O)NC(CC(C)C)C(=O)N3CCCC3C(=O)NC(CCCNC(=N)N)C(=O)O)C(C)C)C2=O)C(C)C)cc1)C(C)C (stereo not shown) [LDC10B] (I: {Pteroyl-γGlu}-CKEFLHPSKVDLPR-OH / II: V[Cit][PABC][NMeV]V[X1][Dolaproine(all-ξ)]-X2; linker I:1-II:N via Hexanoyl(6-succinimido-3yl); configuration not given here)
- quality of the freeze-dried preparation [1]: stable
- % Moisture ([2]; 25° C., 0 day): 0.42%
- % Total impurity ([2]; 25° C., 0 day): 0.44%
- Re-dissolution time s ([2]; 25° C., 0 day): 160 s
- % Moisture ([2]; 25° C., 1 month): 1.79%
- % Total impurity ([2]; 25° C., 1 month): 0.51%
- Re-dissolution time s ([2]; 25° C., 1 month): 154 s
- % Moisture ([2]; 25° C., 2 months): 1.97%
- % Total impurity ([2]; 25° C., 2 months): 0.61%
- Re-dissolution time s ([2]; 25° C., 2 months): 114 s
- % Moisture ([2]; 25° C., 3 months): 2.19%
- % Total impurity ([2]; 25° C., 3 months): 0.81%
- Re-dissolution time s ([2]; 25° C., 3 months): 174 s
- % Moisture ([2]; 25° C., 6 months): 2.62%
- % Total impurity ([2]; 25° C., 6 months): 1.21%
- Re-dissolution time s ([2]; 25° C., 6 months): 128 s
- % Moisture ([2]; 40° C., 0 day): 1.2%
- % Total impurity ([2]; 40° C., 0 day): 0.33%
- Re-dissolution time s ([2]; 40° C., 0 day): 148 s
- % Moisture ([2]; 40° C., 5 day): 1.0%
- % Total impurity ([2]; 40° C., 5 day): 0.48%
- Re-dissolution time s ([2]; 40° C., 5 day): 139 s
- % Moisture ([2]; 40° C., 10 day): 1.2%
- % Total impurity ([2]; 40° C., 10 day): 0.54%
- Re-dissolution time s ([2]; 40° C., 10 day): 118 s
- % Moisture ([2]; 40° C., 30 day): 1.8%
- % Total impurity ([2]; 40° C., 30 day): 0.69%
- Re-dissolution time s ([2]; 40° C., 30 day): 135 s
- pH value ([2]; 25° C., 0 day): 7.4
- pH value ([2]; 25° C., 1 month): 7.5
- pH value ([2]; 25° C., 2 months): 7.2
- pH value ([2]; 25° C., 3 months): 7.4
- pH value ([2]; 25° C., 6 months): 7.3
- pH value ([2]; 40° C., 0 day): 7.4
- pH value ([2]; 40° C., 5 day): 7.1
- pH value ([2]; 40° C., 10 day): 7.3
- pH value ([2]; 40° C., 30 day): 7.4
